Earlier results on five substances are cited in article PMC2978668.

A word on the Kd: it is a measure of binding affinity in units of concentration.

For data set [1], the target named is α1-laminin (UniProt P25391).
Data set [2] has as its target α5-laminin (UniProt O15230).
Data set [3] deals with α4-laminin (UniProt Q16363).
The target of data set [4] is agrin (muscle) (UniProt O00468).
For data set [5], the target named is α2-laminin (UniProt P24043).
In data set [6] the target is perlecan LG (UniProt P98160).
The target in data set [7] is fibulin-2 (UniProt P98095).
Chain of fibulin-2 (P98095 28-1184): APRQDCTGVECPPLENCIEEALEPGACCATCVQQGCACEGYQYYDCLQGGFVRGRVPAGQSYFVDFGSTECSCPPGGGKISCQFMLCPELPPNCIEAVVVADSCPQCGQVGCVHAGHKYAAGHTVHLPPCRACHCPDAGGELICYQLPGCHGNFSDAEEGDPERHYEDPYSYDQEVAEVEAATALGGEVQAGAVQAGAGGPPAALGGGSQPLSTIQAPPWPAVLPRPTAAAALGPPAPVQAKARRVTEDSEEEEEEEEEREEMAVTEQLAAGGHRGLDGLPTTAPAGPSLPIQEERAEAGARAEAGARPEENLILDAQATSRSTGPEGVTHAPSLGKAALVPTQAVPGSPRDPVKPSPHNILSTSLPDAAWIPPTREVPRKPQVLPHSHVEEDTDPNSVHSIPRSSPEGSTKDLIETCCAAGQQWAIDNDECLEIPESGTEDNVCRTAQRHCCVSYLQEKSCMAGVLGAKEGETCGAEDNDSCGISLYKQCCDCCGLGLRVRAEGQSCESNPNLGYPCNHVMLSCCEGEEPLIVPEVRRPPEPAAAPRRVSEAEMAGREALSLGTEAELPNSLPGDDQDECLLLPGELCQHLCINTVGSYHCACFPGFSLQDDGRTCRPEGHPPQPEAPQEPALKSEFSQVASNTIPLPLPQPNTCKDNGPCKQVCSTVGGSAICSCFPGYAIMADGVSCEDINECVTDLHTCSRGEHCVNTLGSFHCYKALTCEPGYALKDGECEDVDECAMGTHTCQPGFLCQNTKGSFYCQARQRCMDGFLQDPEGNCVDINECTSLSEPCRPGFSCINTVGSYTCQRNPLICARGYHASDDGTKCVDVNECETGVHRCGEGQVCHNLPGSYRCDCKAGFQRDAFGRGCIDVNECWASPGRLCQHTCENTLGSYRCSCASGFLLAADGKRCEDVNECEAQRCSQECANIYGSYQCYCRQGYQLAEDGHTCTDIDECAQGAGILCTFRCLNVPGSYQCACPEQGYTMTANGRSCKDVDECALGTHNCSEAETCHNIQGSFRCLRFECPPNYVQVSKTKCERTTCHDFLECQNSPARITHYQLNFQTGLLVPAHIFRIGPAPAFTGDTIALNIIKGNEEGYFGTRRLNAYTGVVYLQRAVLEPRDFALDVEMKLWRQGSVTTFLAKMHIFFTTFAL
The target of data set [8] is perlecan domain IV (UniProt P98160).
Chain of perlecan domain IV (UniProt P98160) (P98160 1677-3686): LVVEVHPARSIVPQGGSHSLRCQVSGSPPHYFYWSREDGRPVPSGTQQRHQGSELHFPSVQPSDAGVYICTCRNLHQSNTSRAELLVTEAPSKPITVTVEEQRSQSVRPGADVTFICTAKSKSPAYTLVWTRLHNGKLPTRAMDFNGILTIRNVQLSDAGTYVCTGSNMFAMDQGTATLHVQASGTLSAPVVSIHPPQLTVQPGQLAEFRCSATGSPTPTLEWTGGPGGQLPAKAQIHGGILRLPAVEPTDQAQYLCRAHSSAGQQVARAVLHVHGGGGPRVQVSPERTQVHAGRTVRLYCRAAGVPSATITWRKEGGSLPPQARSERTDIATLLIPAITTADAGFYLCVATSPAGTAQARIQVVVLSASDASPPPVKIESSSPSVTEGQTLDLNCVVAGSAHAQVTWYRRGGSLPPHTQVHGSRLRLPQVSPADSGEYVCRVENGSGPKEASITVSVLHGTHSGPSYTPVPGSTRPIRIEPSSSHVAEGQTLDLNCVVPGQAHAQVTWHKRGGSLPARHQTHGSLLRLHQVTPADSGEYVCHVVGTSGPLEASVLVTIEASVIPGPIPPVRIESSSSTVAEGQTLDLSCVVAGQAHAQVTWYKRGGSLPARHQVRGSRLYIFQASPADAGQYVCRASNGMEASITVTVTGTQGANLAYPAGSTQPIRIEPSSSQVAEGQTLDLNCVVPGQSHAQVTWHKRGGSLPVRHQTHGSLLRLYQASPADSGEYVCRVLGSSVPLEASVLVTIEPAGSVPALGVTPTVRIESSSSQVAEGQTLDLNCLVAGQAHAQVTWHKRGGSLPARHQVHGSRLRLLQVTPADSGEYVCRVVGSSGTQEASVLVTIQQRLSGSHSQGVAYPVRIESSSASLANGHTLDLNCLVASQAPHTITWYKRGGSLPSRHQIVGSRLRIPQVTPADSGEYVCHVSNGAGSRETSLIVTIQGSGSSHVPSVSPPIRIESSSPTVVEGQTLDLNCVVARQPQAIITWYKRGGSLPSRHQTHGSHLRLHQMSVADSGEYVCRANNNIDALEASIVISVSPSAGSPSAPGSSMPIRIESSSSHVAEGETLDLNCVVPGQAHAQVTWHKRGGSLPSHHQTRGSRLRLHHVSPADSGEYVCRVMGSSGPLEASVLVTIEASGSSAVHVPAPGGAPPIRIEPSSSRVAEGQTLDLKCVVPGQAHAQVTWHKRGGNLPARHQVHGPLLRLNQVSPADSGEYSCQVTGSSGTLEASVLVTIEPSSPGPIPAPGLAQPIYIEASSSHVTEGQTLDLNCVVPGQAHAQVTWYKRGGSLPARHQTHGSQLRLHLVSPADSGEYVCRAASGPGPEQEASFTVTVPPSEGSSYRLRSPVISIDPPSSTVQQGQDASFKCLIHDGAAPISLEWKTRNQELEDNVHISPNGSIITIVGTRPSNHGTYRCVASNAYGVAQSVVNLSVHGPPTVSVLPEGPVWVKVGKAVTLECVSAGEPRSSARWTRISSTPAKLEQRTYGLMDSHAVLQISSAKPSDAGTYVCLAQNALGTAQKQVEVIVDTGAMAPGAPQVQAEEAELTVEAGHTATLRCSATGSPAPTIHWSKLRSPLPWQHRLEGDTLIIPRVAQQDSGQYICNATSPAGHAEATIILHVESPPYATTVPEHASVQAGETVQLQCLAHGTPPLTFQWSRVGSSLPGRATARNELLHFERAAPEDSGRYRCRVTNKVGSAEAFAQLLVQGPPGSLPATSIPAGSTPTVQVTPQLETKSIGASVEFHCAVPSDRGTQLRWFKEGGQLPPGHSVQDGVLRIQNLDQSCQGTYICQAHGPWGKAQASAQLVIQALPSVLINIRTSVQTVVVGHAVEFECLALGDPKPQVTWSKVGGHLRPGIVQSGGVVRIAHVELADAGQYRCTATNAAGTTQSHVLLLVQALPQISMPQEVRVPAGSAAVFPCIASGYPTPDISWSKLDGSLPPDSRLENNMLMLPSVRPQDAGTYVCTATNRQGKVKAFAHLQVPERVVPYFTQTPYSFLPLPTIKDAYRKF
Data set [9] has the same target. The source holds these as a separate data set.
The target in data set [10] is fibronectin (UniProt P02751).

Read-outs that look alike come from different tables or passages of the source. Where only a bound is given, the exact number is not on record here.

Chain of α-dystroglycan (Q14118 30-653): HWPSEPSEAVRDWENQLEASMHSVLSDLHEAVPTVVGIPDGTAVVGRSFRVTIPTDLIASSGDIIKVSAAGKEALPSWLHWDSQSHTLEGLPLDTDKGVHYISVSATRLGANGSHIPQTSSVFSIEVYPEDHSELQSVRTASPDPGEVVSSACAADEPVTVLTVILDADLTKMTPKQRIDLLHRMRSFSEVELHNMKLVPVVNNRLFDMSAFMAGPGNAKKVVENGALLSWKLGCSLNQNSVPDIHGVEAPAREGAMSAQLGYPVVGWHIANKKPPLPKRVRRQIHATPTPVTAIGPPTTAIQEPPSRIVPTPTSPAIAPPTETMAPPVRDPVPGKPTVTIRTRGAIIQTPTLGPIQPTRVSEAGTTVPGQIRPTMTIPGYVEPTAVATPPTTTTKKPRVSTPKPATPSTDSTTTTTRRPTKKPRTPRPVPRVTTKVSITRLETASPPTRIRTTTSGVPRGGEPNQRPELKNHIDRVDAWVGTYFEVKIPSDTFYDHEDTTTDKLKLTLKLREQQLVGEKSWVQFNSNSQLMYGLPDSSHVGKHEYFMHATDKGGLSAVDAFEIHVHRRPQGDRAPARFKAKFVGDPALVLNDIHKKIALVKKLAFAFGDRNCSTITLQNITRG
Chain of nidogen-2 (Q14112 31-1375): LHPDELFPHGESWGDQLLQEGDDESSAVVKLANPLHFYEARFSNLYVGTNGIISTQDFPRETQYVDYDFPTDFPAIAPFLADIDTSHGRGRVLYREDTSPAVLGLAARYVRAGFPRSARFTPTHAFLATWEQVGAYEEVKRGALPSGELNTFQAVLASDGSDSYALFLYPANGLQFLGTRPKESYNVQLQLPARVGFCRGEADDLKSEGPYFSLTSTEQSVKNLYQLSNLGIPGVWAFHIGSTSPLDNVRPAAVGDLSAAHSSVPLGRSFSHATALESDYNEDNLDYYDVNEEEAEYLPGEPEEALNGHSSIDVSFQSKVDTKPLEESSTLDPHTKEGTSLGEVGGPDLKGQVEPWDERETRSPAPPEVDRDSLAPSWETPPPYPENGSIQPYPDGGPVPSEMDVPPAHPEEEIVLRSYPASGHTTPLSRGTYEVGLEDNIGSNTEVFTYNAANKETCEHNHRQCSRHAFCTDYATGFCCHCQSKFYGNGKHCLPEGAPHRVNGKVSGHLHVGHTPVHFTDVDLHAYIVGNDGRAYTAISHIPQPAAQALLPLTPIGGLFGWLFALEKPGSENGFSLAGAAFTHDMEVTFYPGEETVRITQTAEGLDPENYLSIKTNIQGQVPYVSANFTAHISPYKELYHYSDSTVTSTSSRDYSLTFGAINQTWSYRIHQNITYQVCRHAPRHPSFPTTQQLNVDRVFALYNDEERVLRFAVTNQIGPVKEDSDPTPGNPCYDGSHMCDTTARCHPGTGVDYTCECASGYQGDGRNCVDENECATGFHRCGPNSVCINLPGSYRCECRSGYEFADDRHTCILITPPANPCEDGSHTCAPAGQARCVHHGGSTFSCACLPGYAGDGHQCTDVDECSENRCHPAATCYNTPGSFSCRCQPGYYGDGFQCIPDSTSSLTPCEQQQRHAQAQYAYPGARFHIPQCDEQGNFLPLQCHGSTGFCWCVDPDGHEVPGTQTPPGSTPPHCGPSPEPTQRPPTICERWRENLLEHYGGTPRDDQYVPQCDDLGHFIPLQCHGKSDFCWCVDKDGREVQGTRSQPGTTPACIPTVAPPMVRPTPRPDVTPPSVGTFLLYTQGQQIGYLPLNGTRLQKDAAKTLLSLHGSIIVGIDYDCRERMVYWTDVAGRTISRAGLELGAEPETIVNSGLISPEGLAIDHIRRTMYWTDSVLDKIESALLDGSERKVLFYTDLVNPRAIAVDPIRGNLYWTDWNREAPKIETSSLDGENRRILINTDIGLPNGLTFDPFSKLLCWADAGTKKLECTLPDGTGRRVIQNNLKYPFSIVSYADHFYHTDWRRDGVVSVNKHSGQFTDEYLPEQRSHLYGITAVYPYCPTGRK

α-dystroglycan (from UniProt Q14118): the dissociation constant (Kd) was 20 nM in [1]; 150 nM in data set [2]; greater than 1000 nM in data set [3]; 2 nM in data set [4]; 43 nM in data set [5]; 16 nM in [6].
In the case of nidogen (from UniProt P14543), the equilibrium dissociation constant (Kd) in [7] was less than 0.5 nM.
Consider nidogen-2 (from UniProt Q14112), for which the equilibrium dissociation constant (Kd) in data set [8] was 10 nM.
Regarding nidogen-1 G2 (from UniProt P14543), in data set [9], the dissociation constant Kd was 10 nM.
Consider “perlecan domain IV (from UniProt P98160)”, for which the Kd in [10] was 10 nM.
